Measurements: the supplement of paper PMC10567573

B1: ZNF263 (parent)
chain: HLTRHQRTHTGEKPYKCTLCGENF
B2: BTBD1 (parent)
chain: IVGFGLYGSIHGPTDYQVNIQIIE

Variants of: B1
Assay: protein stability index of a GFP-peptide fusion (GPS, HEK-293T) (PSI 1-6); higher = more stable
Details: c terminus: a fixed tail appended
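Also: lentivirally expressed fusions sorted by FACS into six bins by GFP to DsRed ratio, PSI derived from sequencing read proportions per bin multiplied by bin number.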

Protein stability index: each site, then its substitutions
T8: M 2.5; A 3.44; K 2.38; W 2.29; L 2.78; D 3.52; N 3.22; P 2.54; Q 3.41; V 2.65; Y 2.25; S 3.4; C 2.99; R 3.49; G 2.9; F 2.46; E 3.4; H 2.78; I 3.1
R7: Y 2.9; D 3.2; H 4.64; V 2.96; W 2.12; Q 2.96; A 2.94; I 2.4; S 3.36; K 2.97; T 3.6; F 2.49; C 4.78; L 2.97; G 3.39; P 2.63; N 3.51; M 2.94; E 3.98
H1: T 2.56; F 1.36; D 2.97; A 3.07; L 3.11; V 2.46; N 3.22; I 2.19; P 4.14; S 3.12; G 2.19; R 3.02; M 3.02; K 2.74; E 2.97; W 2.22; Y 2.23; C 4.02; Q 3.06
T10: G 2.92; H 3.19; C 2.96; A 3.14; E 3.42; D 2.78; F 2.73
Q6: L 2.61; W 2.04; D 2.84; A 2.93; I 2.22; M 2.6; E 2.71; T 2.75; P 2.69; S 3.68; H 3.28; C 3.36; Y 2.7; N 2.46; F 2.08; R 3.19; V 2.29; G 2.85; K 2.94
R4: P 3.76; L 3.22; I 2.61; F 2.38; G 2.38; H 3.53; N 3.09; M 2.83; K 3.47; D 4.07; Q 3.32; C 3.67; E 3.7; S 3.37; W 2.5; T 3.1; A 3.43; Y 2.76; V 3.35
L2: Y 3.3; R 2.79; Q 3.22; A 3.06; E 3.31; S 3.8; K 3.38; C 4.73; F 2.9; V 3.39; T 3.14; P 3.57; H 3.53; I 2.59; W 2.71; M 3.04; D 4.16; G 3.51; N 3.73
H5: K 2.98; L 2.09; R 2.74; E 2.96; N 2.34; D 2.56; I 2.11; A 2.69; S 3.2; M 2.28; F 2.47; P 2.91; Q 3.08; G 3; V 2.27; W 2.31; Y 2.39; T 2.24; C 3.92
H9: N 2.79; P 2.77; V 2.65; K 3.58; G 3.04; Y 2.19; C 2.74; M 2.5; L 2.51; Q 2.67; S 2.71; A 2.67; D 2.83; I 2.48; E 3.41; W 1.89; T 3.04; F 2.22; R 3.11
T3: N 3.6; W 2.31; E 3.29; Q 3.28; V 2.93; S 2.83; P 2.48; A 2.88; L 2.1; D 3.77; G 2.3; K 3.1; C 3.47; R 3.77; Y 2.36; I 2.33; F 2.3; H 3.4; M 2.63

Variants of: B2
Assay: as above
Details: c terminus: a fixed tail appended

Protein stability index: each site, then its substitutions
D15: S 3.04; N 2.36; I 3.86; C 2.97; G 2.52; L 3.05; V 2.67
T14: N 2.95; I 2.73; Q 3.12; C 2.51; R 4.46; W 2.9; P 3.3; Y 3.03; H 2.71
S9: Q 2.56; Y 2.58; H 1.88; T 1.99; W 2.76; A 1.82; E 2.74
Y16: G 4.04; W 3.98; L 2.09; N 2.41; I 3.59
Q17: E 2.95; S 2.31; F 2.95; G 4.09; D 2.09; T 2.53; Y 2.44
H11: D 1.97; N 3.26
G12: Q 3.29; S 3.04; E 3.19
G3: R 4.02; D 3.42; F 3.55; E 2.82; S 1.66
L6: T 2.16; F 4.24; H 3.36; Q 3.25
G8: L 2.81; I 2.28; T 2.37; D 2.86; M 2.04; Y 2.35
V18: E 2.36; N 1.8; I 2.72; Q 2.38; F 2.14; L 3.15
I10: D 2.74; F 3.05; G 5.97; M 1.95
Q21: F 1.77; R 2.53; C 2.19; L 2.66; T 2.1; A 3.82; G 2.44; P 2.37
I23: W 1.57; Y 2.12; E 2.23; V 2.82; P 2.21; H 4.05; C 2.05
E24: V 2.95; Y 2.02; H 2.33; L 4.16; A 2.41; S 2.78; K 2.36; P 2.89
G5: Q 3.76; T 2.89; N 3.75; K 2.34; Y 3.17; A 4.32; D 2.4
I20: D 2.31; T 2.13; S 1.93; R 2.12; M 4.04; L 3.4
P13: L 2.25; M 2.48; V 2.33; W 2.76; G 1.57; D 1.76; I 4.51
I22: Y 2.48; P 3.17; H 2.4; E 2; N 1.24; V 3.25; G 1.91; S 2.09; Q 3; F 2.84; K 2.4
F4: M 2.47; R 2.25; T 2.1; G 1.56; K 2.39; H 2.54; C 2.29; W 1.8; Q 1.9; L 3.57
N19: M 4.59; G 1.59; W 1.76; I 3.1; R 2.13; H 1.59
Y7: M 2.82; E 3.6; G 2.06; K 3.4; H 3.81; R 4.6; W 3.5; N 2.96
I1: K 2.14; R 1.65; C 2.91; S 1.77; V 3.69; D 2.03; T 1.82
V2: P 1.76; C 3.88; A 2.81; W 3.31; R 2.96; D 2.79
